Laboratory results: PMC7382281 (Proceedings of the National Academy of Sciences of the …, 2020)
Where “and” joins values, the source holds several entries; their conditions need not be identical. Equal entries are not always repeated. Where two headings read alike, the source gives them in different places.

Experiments:
[1] = target: AceI (Acinetobacter chlorhexidine efflux protein I), truncated form, residues 36 to 179, with C-term (A. baumannii); assay: native MS
[2] = target: BRIL (apocytochrome b562RIL)-fusion construct of truncated AceI (residues 36 to 179) (A. baumannii); assay: native MS
[3] = target: AceI (Acinetobacter chlorhexidine efflux protein I), truncated form, residues 36 to 179 with a C-ter (A. baumannii); assay: native MS
[4] = target: BRIL (apocytochrome b562RIL)-fusion of truncated AceI (residues 36 to 179) (A. baumannii); assay: native MS
[5] = target: BRIL (apocytochrome b562RIL)-fusion of full-length AceI (residues 1 to 179) (A. baumannii) (UniProt P0DUT9); assay: native MS
[6] = target: AceI (Acinetobacter chlorhexidine efflux protein I) (Acinetobacter baumannii, UniProt P0DUT9, E15Q); assay: native mass spectrometry of purified mutant; format: binding
[7] = target: AceR (Acinetobacter chlorhexidine efflux protein regulator) (Acinetobacter baumannii, UniProt P0DUU5); assay: isothermal titration calorimetry (AceR^CTD); native MS titration (AceR^FL); format: binding
Excerpt: isothermal titration calorimetry (AceR^CTD); native MS titration (AceR^FL) on AceR (Acinetobacter chlorhexidine efflux protein regulator) | we used isothermal titration calorimetry.

[8] = target: T1, AceI (Acinetobacter chlorhexidine efflux protein I) (Acinetobacter baumannii, UniProt P0DUT9); assay: native mass spectrometry of purified protein in detergent; format: binding
T1 construct: amino acid residues 36 to 179, with a C-terminal hexahistidine tag

[9] = target: E15Q AceI mutant (A. baumannii); assay: native MS
[10] = target: BRIL (apocytochrome b562RIL)-fusion construct of full-length AceI (residues 1 to 179) (A. baumannii) (UniProt P0DUT9); assay: native MS
[11] = target: T2, AceRFL (BRIL-AceR full length) (Acinetobacter baumannii, UniProt P0DUU5 1-297); assay: native MS; 2 uM AceRFL, 2 uM RS1, no chlorhexidine; one RS1 per dimer; native MS; 200 mM ammonium acetate, pH 8.0 (AceRFL-DNA); temperature not stated; settings: protein: recombinant; tags: N-terminal BRIL (apocytochrome b562RIL) fusion; 6xHis; chain copies: 2; blunt
T2 sequence: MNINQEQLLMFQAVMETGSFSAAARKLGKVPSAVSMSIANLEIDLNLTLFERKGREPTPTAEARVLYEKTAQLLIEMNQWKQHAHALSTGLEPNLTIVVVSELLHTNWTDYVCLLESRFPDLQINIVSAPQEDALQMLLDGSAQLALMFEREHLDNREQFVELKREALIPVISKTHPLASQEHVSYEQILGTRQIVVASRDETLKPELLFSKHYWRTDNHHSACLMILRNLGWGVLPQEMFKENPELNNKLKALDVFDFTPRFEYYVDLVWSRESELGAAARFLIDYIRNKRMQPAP

[12] = target: T2, AceRFL (BRIL-AceR full length); assay: native MS; no chlorhexidine; one RS2 per dimer; native MS; 200 mM ammonium acetate, pH 8.0 (AceRFL-DNA); temperature not stated; settings: protein: recombinant; tags: N-terminal BRIL (apocytochrome b562RIL) fusion; 6xHis; chain copies: 2; blunt
native MS [13] = target: the molecule itself; assay: native MS
native MS [14] = target: the molecule itself; assay: native MS; remark: listed apart in the source
native MS [15] = target: the molecule itself; assay: native MS; remark: listed apart in the source

AceI (Acinetobacter chlorhexidine efflux protein I), truncated form, residues 36 to 179, with C-term (domain or fragment)
Kd [1]: 0.92 µM
stoichiometry N [1]: 2

BRIL (apocytochrome b562RIL)-fusion construct of truncated AceI (residues 36 to 179) (domain or fragment)
stoichiometry N [2]: 2

AceI (Acinetobacter chlorhexidine efflux protein I), truncated form, residues 36 to 179 with a C-ter (domain or fragment)
Kd [3]: 5.69 µM
stoichiometry N [3]: 2

BRIL (apocytochrome b562RIL)-fusion of truncated AceI (residues 36 to 179) (domain or fragment)
stoichiometry N [4]: 2

BRIL (apocytochrome b562RIL)-fusion of full-length AceI (residues 1 to 179) (from UniProt P0DUT9 1-144) (natural protein)
stoichiometry N [5]: 2

[H]/N=C(\N/C(=N/[H])NCCCCCCNC(=N)NC(=N)Nc1ccc(Cl)cc1)Nc1ccc(Cl)cc1 [chlorhexidine]
native mass spectrometry of purified mutant [6]: E15Q mutant and found that the binding of chlorhexidine also increased the dimer population of the mutant
Kd [7]: ~16 µM
native mass spectrometry of purified protein in detergent [8]: when tested with chlorhexidine, we observed multiple low-occupancy binding of up to three chlorhexidine molecules

E15Q AceI mutant (domain or fragment)
Kd [9]: 17.5 µM and 18.4 µM

BRIL (apocytochrome b562RIL)-fusion construct of full-length AceI (residues 1 to 179) (from UniProt P0DUT9 1-144) (natural protein)
stoichiometry N [10]: 2

B1: RS1 (site 1, 22 bp) (dsDNA)
DNA 1: TTTTTTAACTTTCTTGGACTAA
DNA 2: TTAGTCCAAGAAAGTTAAAAAA
binding result [11]: binds

B2: RS2 (site 2, 34 bp) (dsDNA)
DNA 1: ACTCTTCAACAAGAACTAATTATAAGTAGACAGT
DNA 2: ACTGTCTACTTATAATTAGTTCTTGTTGAAGAGT
binding result [12]: binds

B3: AceR^CTD: inducer-binding domain of AceR (amino acid residues 90 to 297) (domain or fragment)
chain: GLEPNLTIVVVSELLHTNWTDYVCLLESRFPDLQINIVSAPQEDALQMLLDGSAQLALMFEREHLDNREQFVELKREALIPVISKTHPLASQEHVSYEQILGTRQIVVASRDETLKPELLFSKHYWRTDNHHSACLMILRNLGWGVLPQEMFKENPELNNKLKALDVFDFTPRFEYYVDLVWSRESELGAAARFLIDYIRNKRMQPAP
notes: source: E. coli C43(DE3), purified (HisTrap-HP)
stoichiometry N (native MS [13]): 2

B4: AceR^CTD: inducer-binding domain of AceR (amino acid residues 90 to 297) (domain or fragment)
chain: B3 chain
stoichiometry N (native MS [14]): 2

B5: AceR^FL: full-length AceR (Acinetobacter chlorhexidine efflux protein regulator) with a Bril fusion at the N terminus (natural protein)
chain: T2 sequence
notes: as for B3
stoichiometry N (native MS [13]): 2 and 4
stoichiometry N (native MS [15]): 4

B6: AceR^FL: full-length AceR (Acinetobacter chlorhexidine efflux protein regulator) with a Bril fusion at the N terminus (natural protein)
chain: T2 sequence
notes: source: expressed in high yields, purified
stoichiometry N (native MS [14]): 2 and 4
